Source: IntAct's records for PubMed 20818336

B1: Myocardin-related transcription factor A (Mus musculus), Q8K4J6 (parent)
chain: MTLLEPEMLMMAVQSVLQLKLQQRRTREELVSQGIMPPLKSPAAFHEQRRSLERARTEDYLKRKIRSRPERAELVRMHILEETSAEPSLQAKQLKLKRARLADDLNEKIAQRPGPMELVEKNILPVESSLKEAIIVGQVNYPKVADSSSFDEDSSDALSPEQPASHESQGSVPSPLESRVSDPLPSATSISPTQVLSQLPMAPDPGETLFLAEQPPLPPAPLLPPSLANGSIVPTAKPAPTLIKQSQPKSASEKSQRSKKAKELKPKVKKLKYHQYIPPDQKQDKGAPAMDSSYAKILQQQQLFLQLQILNQQQQQQQQQHYNYQAILPAPPKPSAETPGSSAPTPSRSLSTSSSPSSGTPGPSGLARQSSTALAAKPGALPANLDDMKVAELKQELKLRSLPVSGTKTELIERLRAYQDQVSPAPGAPKAPATTSVLSKAGEVVVAFPAALLSTGSALVTAGLAPAEMVVATVTSNGMVKFGSTGSTPPVSPTPSERSLLSTGDENSTPGDAFGEMVTSPLTQLTLQASPLQIVKEEGARAASCCLSPGARAELEGLDKDQMLQEKDKQIEELTRMLQQKQQLVELLRLQLEQQKRAQQPAPASSPVKRESGFSSCQLSCQPQGSAHAFGSGLVVPTTNHGDTQAPAPESPPVVVKQEAGPPEPDLAPSSQLLLGSQGTSFLKRVSPPTLVTDSTGTHLILTVTNKSADGPGLPAGSPQQPLSQPGSPAPGPPAQMDLEHPPQPPFATPTSLLKKEPPGYEETVTQQPKQQENGSSSQHMDDLFDILIQSGEISADFKEPPSLPGKEKSPPAAAAYGPPLTPQPSPLSELPQAAPPPGSPTLPGRLEDFLESSTGLPLLTSGHEGPEPLSLIDDLHSQMLSSSAILDHPPSPMDTSELHFAPEPSSGMGLDLAVGHLDSMDWLELSSGGPVLSLAPLSTAAPSLFSMDFLDGHDLQLHWDSCL
B2: Importin subunit alpha-3 (Homo sapiens), O00629 (parent)
chain: MADNEKLDNQRLKNFKNKGRDLETMRRQRNEVVVELRKNKRDEHLLKRRNVPHEDICEDSDIDGDYRVQNTSLEAIVQNASSDNQGIQLSAVQAARKLLSSDRNPPIDDLIKSGILPILVHCLERDDNPSLQFEAAWALTNIASGTSEQTQAVVQSNAVPLFLRLLHSPHQNVCEQAVWALGNIIGDGPQCRDYVISLGVVKPLLSFISPSIPITFLRNVTWVMVNLCRHKDPPPPMETIQEILPALCVLIHHTDVNILVDTVWALSYLTDAGNEQIQMVIDSGIVPHLVPLLSHQEVKVQTAALRAVGNIVTGTDEQTQVVLNCDALSHFPALLTHPKEKINKEAVWFLSNITAGNQQQVQAVIDANLVPMIIHLLDKGDFGTQKEAAWAISNLTISGRKDQVAYLIQQNVIPPFCNLLTVKDAQVVQVVLDGLSNILKMAEDEAETIGNLIEECGGLEKIEQLQNHENEDIYKLAYEIIDQFFSSDDIDEDPSLVPEAIQGGTFGFNSSANVPTEGFQF
partner: B1 chain

Variants of: B1
Settings: with ima3_human KPNA4, O00629

Row | effect of a mutation on the interaction | Variant
1 | decreasing interaction strength | K95A;L96A;K97A
2 | decreasing interaction strength | K62A;R63A;K64A
3 | disrupting interaction strength | K62A;R63A;K64A;K95A;L96A;K97A

Variants of: B1
Settings: with imb1_human KPNB1, Q14974
imb1_human KPNB1, Q14974, sequence (Q14974 whole entry): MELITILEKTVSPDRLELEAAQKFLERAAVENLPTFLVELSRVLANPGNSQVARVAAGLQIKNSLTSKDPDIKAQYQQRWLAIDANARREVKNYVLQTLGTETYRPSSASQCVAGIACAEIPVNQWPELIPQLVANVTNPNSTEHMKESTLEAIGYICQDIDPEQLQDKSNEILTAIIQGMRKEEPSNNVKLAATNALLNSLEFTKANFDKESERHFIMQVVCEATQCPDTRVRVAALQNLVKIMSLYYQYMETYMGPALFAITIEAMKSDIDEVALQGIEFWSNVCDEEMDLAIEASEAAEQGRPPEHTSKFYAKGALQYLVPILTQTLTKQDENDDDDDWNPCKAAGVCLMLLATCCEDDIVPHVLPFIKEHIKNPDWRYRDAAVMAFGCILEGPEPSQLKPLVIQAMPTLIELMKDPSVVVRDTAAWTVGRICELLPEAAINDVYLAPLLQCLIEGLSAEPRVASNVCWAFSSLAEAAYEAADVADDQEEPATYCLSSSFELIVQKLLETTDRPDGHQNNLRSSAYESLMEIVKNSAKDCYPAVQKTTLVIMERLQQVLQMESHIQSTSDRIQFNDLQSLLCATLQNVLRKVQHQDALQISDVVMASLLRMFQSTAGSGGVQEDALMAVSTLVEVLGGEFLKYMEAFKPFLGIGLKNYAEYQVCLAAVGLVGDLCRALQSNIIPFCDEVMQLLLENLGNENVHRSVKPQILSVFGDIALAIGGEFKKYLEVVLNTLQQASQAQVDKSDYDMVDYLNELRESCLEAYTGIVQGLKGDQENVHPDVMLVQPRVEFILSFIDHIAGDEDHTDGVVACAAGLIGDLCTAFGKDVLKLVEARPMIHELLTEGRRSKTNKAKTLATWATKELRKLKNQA

Row | effect of a mutation on the interaction | Variant
4 | disrupting interaction strength | K95A;L96A;K97A
5 | decreasing interaction strength | K62A;R63A;K64A

Variants of: B2
Settings: with mrtfa_mouse Mrtfa

Row | effect of a mutation on the interaction | Variant
6 | decreasing interaction strength | W179A;N183A;W390A;N394A
7 | decreasing interaction strength | W179A;N183A
8 | decreasing interaction strength | W390A;N394A
